From publication PMC10328853, “Design and preclinical evaluation of a novel apelin-based PET radiotracer targeting APJ receptor for molecular imaging of angiogenesis” (Angiogenesis, 2023)

What was measured:
[1] = tested on: Matrigel plug mouse model; assay: Longitudinal PET/CT follow-up in the Matrigel plug mouse model; format: in vivo; details: Matrigel mice, n = 7
Experimental: Matrigel plugs were established by subcutaneous dorsal injections of 300 µL Matrigel (Dutscher, Bernolsheim, France) supplemented with 10% fetal bovine serum, to 9-week-old male Swiss mice (Janvier Labs, Le Genest-Saint-Isle, France, n = 12) under 2% isoflurane anesthesia. Seven Matrigel mice underwent small animal PET follow-up, and five others were involved in the in vivo specificity study as described below. […] Small animal PET imaging acquisition lasted 20 min (numbers of iterations: 4, coincidence: 1–3) using a field of view (FOV) of 10 cm. CT parameters were fixed at 35 kV voltage, 300 ms exposure at medium zoom, acquired by semi-circular method on the same FOV as PET. CT attenuation-corrected reconstruction was performed using Nucline software (Mediso, Budapest, Hungary). Tissue uptake values were expressed as a target-to-background (Matrigel-to-muscle) or as an ischemic-to-contralateral hindlimb PET signal ratio.

APJ in Matrigel plug = biological target: T1, APJ in Matrigel plug (Mus musculus, UniProt Q9WV08); assay: In vivo specificity of PET signal, Matrigel plug mice, baseline or APJ-blocking; details: PET 1 h p.i., n = 5
T1 construct: probably related to avascular and acellular contents of Matrigel; from tissue; host or cells: Subcutaneous Matrigel plug in male Swiss mice
T1 sequence (Q9WV08 1-377): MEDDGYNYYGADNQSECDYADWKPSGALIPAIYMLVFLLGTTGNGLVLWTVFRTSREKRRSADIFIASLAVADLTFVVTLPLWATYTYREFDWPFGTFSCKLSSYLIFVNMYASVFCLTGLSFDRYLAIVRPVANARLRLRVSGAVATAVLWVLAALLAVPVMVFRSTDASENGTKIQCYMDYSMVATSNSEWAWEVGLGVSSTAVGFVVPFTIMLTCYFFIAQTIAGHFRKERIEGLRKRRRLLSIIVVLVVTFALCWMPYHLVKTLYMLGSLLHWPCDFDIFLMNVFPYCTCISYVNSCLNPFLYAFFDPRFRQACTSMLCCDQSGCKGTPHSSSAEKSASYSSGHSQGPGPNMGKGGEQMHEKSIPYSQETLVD
Experimental: Matrigel plugs were established by subcutaneous dorsal injections of 300 µL Matrigel (Dutscher, Bernolsheim, France) supplemented with 10% fetal bovine serum, to 9-week-old male Swiss mice (Janvier Labs, Le Genest-Saint-Isle, France, n = 12) under 2% isoflurane anesthesia. Seven Matrigel mice underwent small animal PET follow-up, and five others were involved in the in vivo specificity study as described below.
(§1) Small animal PET imaging acquisition lasted 20 min (number of iterations: 4, coincidence: 1–3) using a field of view (FOV) of 10 cm. CT parameters were fixed at 35 kV voltage, 300 ms exposure at medium zoom, acquired by semi-circular method on the same FOV as PET. CT attenuation-corrected reconstruction was performed using Nucline software (Mediso, Budapest, Hungary). […] Tissue uptake values were expressed as a mean target-to-background PET signal ratio (TBRmean) with background represented by the left gastrocnemius muscle.

in vivo [2] = details: male, Swiss, mouse, iv, 4.45 MBq, total radioactivity
Experimental: The quantified PET signal in organs was presented as mean ± SD percentage of the decay-corrected injected dose (%ID). Acquisition of small animal dynamic PET/CT was performed for 120 min on a NanoScan PET/CT camera (Mediso, Budapest, Hungary) under 2% isoflurane in medical air anesthesia [PET parameters: numbers of iterations: 4, coincidence: 1–3, field of view (FOV): 10 cm]. CT parameters were fixed at 35 kV voltage, 300 ms exposure at medium zoom, acquired by semi-circular method on the same FOV as PET. CT attenuation-corrected reconstruction was performed using Nucline software (Mediso, Budapest, Hungary) on the following time frames: 0–5 min, 6–10 min, 11–15 min, 16–20 min, 21–25 min, 26–30 min, 31–45 min, 46–60 min, 61–75 min, 76–90 min, 91–105 min, and 106–120 min.

in vivo [3] = details: Pietrain, pig, 85 MBq, total radioactivity
Experimental: Attenuation-corrected images were reconstructed using ADW software v4.6 (GE Healthcare, Chicago, Illinois, USA), and PET signal quantifications were performed on CT-based manually drawn volumes of interest (VOIs) using VivoQuant software v.3.5 (InVicro, Boston, MA, USA). Results were decay corrected and expressed as mean ± sd percentage of the injected dose (%ID).

APJ in T84 tumors = biological target: T2, APJ in T84 tumors (Homo sapiens, UniProt P35414); assay: In vivo specificity of PET signal, T84 colon adenocarcinoma xenograft mice, baseline or APJ-blocking; set-up: species or system mouse; details: PET 1 h p.i., n = 3
T2 construct: Mice bearing ectopic colon adenocarcinoma xenograft; from tissue; host or cells: T84 xenograft tumour in Swiss nude mice
T2 sequence (P35414 1-380): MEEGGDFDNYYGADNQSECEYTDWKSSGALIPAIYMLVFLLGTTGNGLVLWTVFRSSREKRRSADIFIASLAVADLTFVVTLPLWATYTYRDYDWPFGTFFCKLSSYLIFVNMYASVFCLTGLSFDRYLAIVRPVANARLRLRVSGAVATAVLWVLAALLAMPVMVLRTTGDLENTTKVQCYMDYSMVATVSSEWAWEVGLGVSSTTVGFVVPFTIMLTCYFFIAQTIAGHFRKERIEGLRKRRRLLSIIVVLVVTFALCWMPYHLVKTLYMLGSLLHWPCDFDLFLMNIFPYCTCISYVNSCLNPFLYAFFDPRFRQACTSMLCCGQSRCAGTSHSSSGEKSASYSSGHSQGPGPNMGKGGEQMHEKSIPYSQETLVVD
Experimental: Human colon adenocarcinoma xenografts were established by subcutaneous dorsal injections of 1.10^6 T84 cells (100 µL, PBS) to 6-week-old male Swiss nude mice (Charles River, Saint-Germain-Nuelles, France, n = 3) under 2% isoflurane anesthesia.
as §1

[4] = mouse, in vivo, iv
Experimental: Blood was collected at 2, 5, 10, 15, 20, 30, 45, 60, 75, 90, 105, and 120 min post-injection and gamma counted with decay correction. Plasmatic half-life (t1/2) was estimated by nonlinear regression. At two hours post-injection, mice were euthanatized and the main organs (heart, liver, lungs, muscle, brain, spleen, intestines, bone, pancreas, and kidneys) were collected, washed in PBS, weighted, and gamma counted. Results were decay corrected and expressed as percentage of injected dose corrected by organ weight (%ID/g).

APJ on T84 cells = biological target: T3, APJ on T84 cells (Homo sapiens, UniProt P35414); assay: In vitro specificity of [68Ga]Ga-AP747 by autoradiography, with and without excess apelin-F13A; format: cell-based; details: 1 h incubation, n = 6
T3 construct: endogenous in cells; host or cells: T84 human colon adenocarcinoma cells
T3 sequence (P35414 1-380): T2 sequence (P35414 1-380)
Experimental: T84 cells were seeded at a 1.10^6 cells per well density in 24-well plates (Corning, Corning, USA) and incubated overnight with a complete medium. […] After a 1 h incubation, the medium was removed and the cells were washed 3 times with PBS (Eurobio-scientific, Les Ulis, France) and their viability assessed.

[5] = tested on: hindlimb ischemia mouse model; assay: Longitudinal PET/CT follow-up in the hindlimb ischemia mouse model; format: in vivo; details: HLI mice, day 7, PET 1 h after i.v. injection, n = 8
Text: Unilateral hindlimb ischemia (HLI) was induced on 9-week-old female Swiss mice (Janvier Labs, n = 8) after femoral artery excision under 2% isoflurane anesthesia as previously described. LASER Doppler perfusion imaging (Perimed, Craponne, France) was used to assess revascularization from day 0 to day 21 after surgery. Perfusion measurements were expressed as an ischemic-to-contralateral ratio of hind limb blood flow normalized to the day of surgery. […] Small animal PET imaging acquisition lasted 20 min (numbers of iterations: 4, coincidence: 1–3) using a field of view (FOV) of 10 cm. CT parameters were fixed at 35 kV voltage, 300 ms exposure at medium zoom, acquired by semi-circular method on the same FOV as PET. CT attenuation-corrected reconstruction was performed using Nucline software (Mediso, Budapest, Hungary). Tissue uptake values were expressed as a target-to-background (Matrigel-to-muscle) or as an ischemic-to-contralateral hindlimb PET signal ratio.

APJ = details: cited from earlier work
Text: In this context, we identified the apelin/APJ system as a relevant molecular target for angiogenesis imaging because of its implication in blood vessels formation by sprouting. The APJ receptor also known as APLNR and AGTRL1 is a class A G-protein-coupled receptor. Apelin is an endogenous ligand of this receptor. The Apelin/APJ system is described as implicated in different pathologies. High levels of APJ mRNA and protein are found respectively in endothelial cells through vessel formation and on sprouting vessels of hypoxic tissues and tumor-associated endothel ...

[6] = 100X apelin-F13A (100 µg) i.v. 30 min before tracer

CSCC[C@H](NC(=O)[C@@H]1CCCN1C(=O)CNC(=O)[C@H](CCCCNC(=O)CCC(C(=O)O)N1CCN(CC(=O)O)CCN(CC(=O)O)CC1)NC(=O)[C@H](Cc1c[nH]cn1)NC(=O)[C@H](CO)NC(=O)[C@H](CC(C)C)NC(=O)[C@H](CCCNC(=N)N)NC(=O)[C@@H]1CCCN1C(=O)[C@H](CCCNC(=N)N)NC(=O)[C@H](CCC(N)=O)NC(=O)CCC(C(=O)O)N1CCN(CC(=O)O)CCN(CC(=O)O)CC1)C(=O)N1CCC[C@H]1C(=O)N[C@@H](C)C(=O)O (some centres unmarked) [[^68Ga]Ga-AP747, metal not drawn]
target-to-background (Matrigel-to-muscle) PET signal ([1]; day 10, PET 1 h after i.v. injection): 3.78 ± 2.11
target-to-background (Matrigel-to-muscle) PET signal ([1]; day 13, PET 1 h after i.v. injection): 4.86 ± 2.49
target-to-background (Matrigel-to-muscle) PET signal ([1]; day 21, PET 1 h after i.v. injection): 5.00 ± 3.04
PET Matrigel-to-muscle ratio, blocking (APJ in Matrigel plug; [6]): 2.35 ± 0.62
PET Matrigel-to-muscle ratio, non-blocked (APJ in Matrigel plug; i.v.): 7.29 ± 3.14
tissue uptake dose at 2 h (in vivo [2]; PET signal in bladder): 88.3 ± 5 %ID
tissue uptake dose at 2 h (in vivo [2]; PET signal in brain): 0.02 ± 0.001 %ID
tissue uptake dose at 2 h (in vivo [2]; PET signal in kidneys): 1.04 ± 0.2 %ID
tissue uptake dose at 2 h (in vivo [2]; PET signal in liver): 0.35 ± 0.03 %ID
tissue uptake dose at 2 h (in vivo [2]; PET signal in lungs): 0.06 ± 0.02 %ID
tissue uptake dose at 2 h (in vivo [3]; PET signal in bladder): 39.4 ± 8.54 %ID
tissue uptake dose at 2 h (in vivo [3]; PET signal in brain): 0.037 ± 0.015 %ID
tissue uptake dose at 2 h (in vivo [3]; PET signal in heart): 0.58 ± 0.16 %ID
tissue uptake dose at 2 h (in vivo [3]; PET signal in kidneys): 3.98 ± 0.79 %ID
tissue uptake dose at 2 h (in vivo [3]; PET signal in liver): 1.42 ± 0.34 %ID
tissue uptake dose at 2 h (in vivo [3]; PET signal in lungs): 1.39 ± 0.46 %ID
PET tumor-to-muscle ratio, blocking (APJ in T84 tumors; [6]): 1.02 ± 0.31
PET tumor-to-muscle ratio, non-blocked (APJ in T84 tumors; i.v.): 7.93 ± 2.17
Plasmatic half-life (t1/2) [4]: 13.31 min
cell-to-background autoradiography signal ratio, non-blocked (APJ on T84 cells; 1.7 MBq/10 µL per well): 1.40 ± 0.38
cell-to-background autoradiography signal ratio, blocking (APJ on T84 cells; large excess of apelin-F13A added 10 min before tracer): 0.50 ± 0.23
i/c (ischemic-to-contralateral hindlimb) PET signal ratio [5]: 5.49 ± 5.97

[Ala13]-Apelin-13 [apelin-F13A]
affinity for APJ (APJ): nanomolar affinity
